Target: APB-R3, long-acting recombinant human IL-18BP linked to the human albumin-binding Fab fragment SL335 (human)
Assay: SPR

Kd: 0.0609 nM
Substance: human IL-18 (from UniProt Q14116 37-193) (ligand)
